Target: T1, chemokine receptor CXCR4, expressed on transfected 293T cells (UniProt P61073 1-352, limits assumed)
T1 construct: whole, on cells; also called CXCR4 receptor
Test: phage binding to transfected 293T cells; bound phage rescued and titrated
Method: Briefly, plasmid (10 μg) was mixed with 900 μl of serumfree DMEM and 50 μl of FuGene and incubated for 15 min at room temperature before adding the mixture to the cells. The cells were detached using EDTA after 48 hrs post transfection and washed with PBS containing 1% BSA. Phage (5×10⁹ pfu) were incubated with the transfected cells and bound phage were rescued and titrated. For competitive binding assay, the cognate peptide (150 μg/ml) or antibody (50 μg/ml) was added during incubating of the phage with cells. Targeted proapoptotic peptide treatment of tumor-bearing mice Prostate cancer model. Orthotopic xenografted prostate tumors were established by injecting 1×10⁶ PPC1 human prostate cancer cells into the mouse prostate. Fifteen days post inoculation, the mice were intravenously injected with D(KLAKLAK)₂-[…] (SEQ ID NO:41), an equimolar mixture of D(KLAKLAK)₂ (SEQ ID NO:19) and […] (SEQ ID NO:6), or PBS. Biweekly injections of 100 μg/dose/mouse were given for three weeks. Melanoma model. Nude BALB/c mice were subcutaneously injected with 1×10⁶ C8161 human melanoma cells. Treatment started when mean tumor volumes reached about 100 mm3. Mice with size-matched tumors were randomized into three groups. […] The mice were monitored for weight loss, and tumors were dissected and weighed at the termination of the experiment. […]

T1 sequence (P61073 whole entry): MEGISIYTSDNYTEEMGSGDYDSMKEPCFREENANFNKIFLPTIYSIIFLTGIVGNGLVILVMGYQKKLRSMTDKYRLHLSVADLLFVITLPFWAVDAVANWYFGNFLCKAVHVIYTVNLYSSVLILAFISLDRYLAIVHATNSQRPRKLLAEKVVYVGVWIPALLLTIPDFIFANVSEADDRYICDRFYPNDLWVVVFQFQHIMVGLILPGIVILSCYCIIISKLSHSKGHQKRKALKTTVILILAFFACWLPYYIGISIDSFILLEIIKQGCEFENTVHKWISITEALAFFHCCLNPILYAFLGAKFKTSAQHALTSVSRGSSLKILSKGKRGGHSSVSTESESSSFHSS

Does CGNKRTRGC [LyP-1 phage (T7 phage displaying the peptide CGNKRTRGC, SEQ ID NO:16)] bind?
Result: no binding (tested: 5x10^9 pfu phage)
